According to the supplement of paper PMC9170038:

Test system: MS2 coat protein
Experiment: apparent KD of MS2 coat protein; designed switch direction (-1 OFF switch, 1 ON switch): -1; higher = weaker reporter binding
In short: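 Three titration conditions were used: no input, 200 uM small-molecule ligand, and an oligonucleotide input. In each, SNAP-549-labelled MS2 coat protein was raised from 0.7 or 1.5 nM, doubling, to 3 µM over designed RNA switches transcribed on Illumina chips by stalled E. coli RNA polymerase. Curve fits of normalised cluster fluorescence gave values whose per-design median over clusters is the apparent KD.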

[1] = Eterna round: R95, input ligand: microRNA oligo, concentration not stated
[2] = input ligand: microRNA oligo, concentration not stated
[3] = Eterna round: R95, input ligand: FMN 200 uM
[4] = Eterna round: R95, input ligand: none

Row | Sequence | apparent KD of MS2 coat protein [1] | apparent KD of MS2 coat protein (input ligand: FMN 200 uM) | apparent KD of MS2 coat protein (input ligand: none) | apparent KD of MS2 coat protein [2] | apparent KD of MS2 coat protein [3] | apparent KD of MS2 coat protein [4]
1 | CGAUGUUAUGUCAGGAUAUGCAUUGCGAAAGCAAUGCAGAAGGGACAUGAGGAUCACCCAUGUCCUAACCAUCG [Omei A 4] (puzzle: Brourd's mod of Exclusion 4) | 11.1 nM |  |  |  |  | 
2 | CGAUGUUGUGUCAGGAUAUGCGUUGCGAAAGCAAUGUAGAAGGGACAUGAGGAUCACCCAUGUUCUAACCAUCG [Omei A 9] (puzzle: Brourd's mod of Exclusion 4) | 11.2 nM |  |  |  |  | 
3 | CGCUGGACAGGAUAUGUUCUUGAGCACUUGAGGAUCACCCAAGUCAUCAAGAACUCAGGCACAGAAGGGUUUAUGG [salish99_ex5_r4_016] (Eterna round: R97, puzzle: Exclusion 5) |  | 24.6 nM | 13.4 nM |  |  | 
4 | CGCUGGACAGGAUAUGUUCUUGGGCACUUGAGGAUCACCCAAGUCAUCAAGAAAACAGGCACAGAAGGGUUUAUGG [salish99_ex5_r4_020] (Eterna round: R97, puzzle: Exclusion 5) |  | 32.1 nM | 24.1 nM |  |  | 
5 | CGCUGGUGAGGAUAUGGGUGUGGUUACAUGAGGAUCACCCAUGUGGUGUCGCAUGUGGGUCCAGAAGGCGCGGGUG [-25.2, -23.4 kcal, 17% A] (Eterna round: R97, puzzle: Exclusion 5) |  | 856 nM | 585 nM |  |  | 
6 | CGGACACCAGUAGGAUAUGUAGGAUAUGUUGUUGAGGAUCACCCAACAAAUUAAACGACAGAAGGACAGAAGGACUGUUCUCCU [pwkr exNG2 2xFMN 1xF5.2] (Eterna round: R96, puzzle: Exclusion NG 2) |  | 18.6 nM | 24.7 nM | 14.5 nM |  | 
7 | CGGAGUUAGGAGGAUAUGACGAACGCACGUCGUUCAGAAGGCCUAACAUGAGGAUCACCCAUGUGCUUAACACG [Eternabot (L2) Solution 59] (Eterna round: R97, puzzle: Exclusion 6) |  | 48.7 nM | 35.7 nM |  |  | 
8 | CGGAUGUUAGGAUAUUAGUAGUAGUCAGAAAAGACUAUUACUGAGAAGGAACAUGAGGAUCACCCAUGUUUCCG [Mat - Exclusion 4 - Eli Mod - D44] (Eterna round: R97, puzzle: Exclusion 4) |  | 17 nM | 15.4 nM |  |  | 
9 | CGGCGACAUGAGGAUCACCCAUGUGAGGAUAUGACGGGAAAAGCGUGAGCAGUUUGUAUCAGAAGGCGGGUAGG [salish99_ex1_r4_080] (Eterna round: R97, puzzle: Exclusion 1) |  | 37.2 nM | 33.6 nM |  |  | 
10 | CGGCGGGUCGCGCUGGUCCACAUGAGGAUCACCCAUGUUCCGGCACGCUGAAGGCACACGCUUUUUGCUCGUCUUAU [Sensor V1 S1] (Eterna round: R97, puzzle: Sensor, turn-off variant 1) |  | 32.2 nM | 35 nM |  |  | 
11 | CGGGCCGGCCUUCCGGCCGGCCCGACAUGAGGAUCACCCAUGUAGGAUAUCCCGGCUGCCGGCCGGGAGAAGGGCGUGCGUCCU [-50.4, -49.5 kcal, 14% A] (Eterna round: R96, puzzle: Exclusion NG 3) |  | 101 nM | 91.6 nM | 53.6 nM |  | 
12 | CGGUCACUAGGAUAUCAGGAAAACUACAUGAGGAUCACCCAUGUACUGAGUGUAGGAGACUGAGAAGGAGUUCUUA [EX5 C.4] (Eterna round: R97, puzzle: Exclusion 5) |  | 31.5 nM | 22.3 nM |  |  | 
13 | CGGUGACGGGUGAGGAUAUCGUGUUCGAAAGAACGUGAGAAGGCACAUGAGGAUCACCCAUGUGAUCCUCAUCG [Omei Ex4B A31] (Eterna round: R97, puzzle: Brourd's mod of Exclusion 4) |  | 412 nM | 56.1 nM |  |  | 
14 | CGGUGUAAGUCAGGAUAUGAGCGCAACUGACGAUCAGAAGGGACACAUGAGGAUCACCCAUGUGAUUUCUCAAUAUUAUACAUC [Prohibition 90 - Jieux - Exclusion NG 1] (Eterna round: R96, puzzle: Exclusion NG 1) |  | 30.7 nM | 23.1 nM | 14.4 nM |  | 
15 | CGGUGUAGAGGAUAUACGUGAAUUUUGUUAUAUAAUAAUUUACAUGAGGAUCACCCAUGUAGAAGGCUAUAGCG [JR_Ex2_Sub084] (Eterna round: R97, puzzle: Exclusion 2) |  | 23.4 nM | 24.2 nM |  |  | 
16 | CGGUUGUGAGGAUAUACAUGAGGAUCACCCAUGUCCAUCCUUUCGGUAACGAUAGAACGUAGAAGGCGCACCGU [Eternabot (L2) Solution 55] (Eterna round: R97, puzzle: Exclusion 3) |  | 24.4 nM | 16 nM |  |  | 
17 | CGUAAGCUAGGAUAUGCUUUGGGAAAGCAUUCCUUCGAUAAACUUGAGGAUCACCCAAGUAGAAGGAGCUUACA [salish99_ex2_r4_012] (Eterna round: R97, puzzle: Exclusion 2) |  | 18.2 nM | 12.3 nM |  |  | 

Row | Sequence | apparent KD of MS2 coat protein [1] | apparent KD of MS2 coat protein (input ligand: FMN 200 uM) | apparent KD of MS2 coat protein (input ligand: none) | apparent KD of MS2 coat protein [2] | apparent KD of MS2 coat protein [3] | apparent KD of MS2 coat protein [4]
18 | CGUACUAACACGAAAGUGUUAGUACAAUAAGCUUGUGAAACAUGAGGAUCACCCAUGUCCUCAUAAGCUCGUCUUAA [salish99_TOv2_r3_006] (puzzle: Sensor v3, turn-off variant 2) | 268 nM |  |  |  | 14.1 nM | 12.1 nM
19 | CGUAGCAAAGUGAGGAUAUCUAGAGCCUCGGCUCUAGAGAAGGCACAUGAGGAUCACCCAUGUGAUUAGCUACG [BmEx4/9-A2] (Eterna round: R97, puzzle: Brourd's mod of Exclusion 4) |  | 173 nM | 24.1 nM |  |  | 
20 | CGUAUCUUUCACGUGAGUAGUGGGUGCAACAGGUGGGUCACAUGAGGAUCACCCAUGUACUCACUUGCUCGUCUUAU [Grok-var2-07] (puzzle: Sensor v3, turn-off variant 2) | 14 nM |  |  |  | 24 nM | 21.8 nM
21 | CGUCCACUUGAGGAUCACCCAAGUUAGGAUAUCUCCCAGCUCGCAUGUGCGGUUGGUCAGAGAAGGAACCAGGG [Ravereed] (Eterna round: R97, puzzle: Exclusion 1) |  | 49.5 nM | 29 nM |  |  | 
22 | CGUCGACAUGUAGGAUAUCUGCACGAUUAGUGCAGAGAAGGACAUGAGGAUCACCCAUGUAGAUCACGACGAAUUAAUUUAAUU [ENG1/6-C1] (Eterna round: R96, puzzle: Exclusion NG 1) |  | 476 nM | 527 nM | 298 nM |  | 
23 | CGUCUGUAAGGAUAUGGUAGCAUUUACAUGAGGAUCACCCAUGUUACAUGGGACUAGUGAUUAGAAGGUACGAACG [EX5 #55] (Eterna round: R97, puzzle: Exclusion 5) |  | 276 nM | 322 nM |  |  | 
24 | CGUCUGUCAGGAUAUAGUUACAUAGACAUGAGGAUCACCCAUGUGACGUGGGACUAGUGACUAGAAGGGACGAACG [EX5 #71] (Eterna round: R97, puzzle: Exclusion 5) |  | 58.7 nM | 28.8 nM |  |  | 
25 | CGUCUGUGAGGAUAUGGUAUCGUUUACAUGAGGAUCACCCAUGUUACAUGGGACUAGAGACUAGAAGGUACGGACG [EX5 #48] (Eterna round: R97, puzzle: Exclusion 5) |  | 461 nM | 391 nM |  |  | 
26 | CGUGACUCAGGAUAUCGAUUAUAUCACAUGAGGAUCACCCAUGUCCAGCGAAAGCUGGAGUGAGAAGGGAGUCACG [Fiskers Ex 5 - 49] (puzzle: Exclusion 5) | 107 nM |  |  |  | 47.6 nM | 109 nM
27 | CGUGCGUAUGUGAGGAUAUGCUGGUCCUUGGAUCAGCAGAAGGCACAUGAGGAUCACCCAUGUGGUGUCGUACG [salish99_Bmod_Ex4_018] (puzzle: Brourd's mod of Exclusion 4) | 182 nM |  |  |  | 18.7 nM | 395 nM
28 | CGUGGACAUGAGGAUCACCCAUGUGAGGAUAUCGGCUGGUACGUGUUGGCUGGCAUCUCGAGAAGGCACAUAGU [Exclusion 1 V62] (puzzle: Exclusion 1) | 40.8 nM |  |  |  |  | 
29 | CGUGGUAGGCAGGAUAUUUUAGACAAUUACUUGAAAGAAGGGCCUACAUGAGGAUCACCCAUGUGCUCUUCUUG [EX6 B.3] (Eterna round: R97, puzzle: Exclusion 6) |  | 16.9 nM | 16.8 nM |  |  | 
30 | CGUGUCUGAUAGGAUAUGACUGUUCAUAGAUGGUUAGAAGGAUCGACAUGAGGAUCACCCAUGUAGGGCUAGCG [Eternabot (L1) Solution 65] (Eterna round: R97, puzzle: Exclusion 6) |  | 104 nM | 219 nM |  |  | 
31 | CUAAGUCGAGGAUAUGCAUGGUGACAUGAUGCCGAUGCACGACAUGAGGAUCACCCAUGUAGAAGGCGACUUAG [Eternabot (L2) Solution 50] (Eterna round: R97, puzzle: Exclusion 2) |  | 8.04 nM | 835 nM |  |  | 
32 | CUAAUACAUCAGGAUAUGAUAGCUUAUAGCAUAUCAGAAGGGAUGACAUGAGGAUCACCCAUGUCAAAGGGUGA [eternacac ex6r4 sub18] (Eterna round: R97, puzzle: Exclusion 6) |  | 130 nM | 590 nM |  |  | 
33 | CUACAUCGAGGAUAUGCAAACGUAAACAUGAGGAUCACCCAUGUGACGUCAUAUUACGUAGUAGAAGGCGAAAAUA [Anlein] (Eterna round: R97, puzzle: Exclusion 5) |  | 20.2 nM | 15.8 nM |  |  | 
34 | CUAGUCCGAGGAUAUAUUAAGUGAUACAUGAGGAUCACCCAUGUUAUUUAAUGGAUAUUAAUAGAAGGCGGACUAG [Mat - Exclusion 5 - JL mod - D78] (puzzle: Exclusion 5) | 32.1 nM |  |  |  | 42.6 nM | 31.3 nM
